# US20240158474A1 (SINO BIOLOGICAL, published 2024)
# T1: HPV51 VLP protein (human papillomavirus type 51, UniProt P26536 1-474)
# T1 construct: Complete VLP protein; no limits of the construct printed, whole entry named; also called HPV51L1
# T1 sequence: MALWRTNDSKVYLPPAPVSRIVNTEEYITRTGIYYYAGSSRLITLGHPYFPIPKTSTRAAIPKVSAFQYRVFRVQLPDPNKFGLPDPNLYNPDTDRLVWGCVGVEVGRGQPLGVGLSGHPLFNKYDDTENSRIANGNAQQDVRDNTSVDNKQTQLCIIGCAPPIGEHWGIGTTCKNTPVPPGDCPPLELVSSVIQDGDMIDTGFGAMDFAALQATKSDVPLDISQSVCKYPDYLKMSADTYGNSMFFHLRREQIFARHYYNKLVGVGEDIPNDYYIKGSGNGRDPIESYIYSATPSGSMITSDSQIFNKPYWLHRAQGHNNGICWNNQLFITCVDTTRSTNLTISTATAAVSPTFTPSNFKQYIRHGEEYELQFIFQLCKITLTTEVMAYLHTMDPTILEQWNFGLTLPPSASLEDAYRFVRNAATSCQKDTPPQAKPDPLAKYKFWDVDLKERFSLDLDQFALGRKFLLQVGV
# T2: HPV31 VLP protein (human papillomavirus type 31; human …, UniProt P17388 1-475; P06416 474-499)
# T2 construct: range 1-475;range 474-499; Complete VLP protein used as coating protein; also called P31SHELL(1-475Y)+HPV33L1(474K-499K)
# T2 sequence: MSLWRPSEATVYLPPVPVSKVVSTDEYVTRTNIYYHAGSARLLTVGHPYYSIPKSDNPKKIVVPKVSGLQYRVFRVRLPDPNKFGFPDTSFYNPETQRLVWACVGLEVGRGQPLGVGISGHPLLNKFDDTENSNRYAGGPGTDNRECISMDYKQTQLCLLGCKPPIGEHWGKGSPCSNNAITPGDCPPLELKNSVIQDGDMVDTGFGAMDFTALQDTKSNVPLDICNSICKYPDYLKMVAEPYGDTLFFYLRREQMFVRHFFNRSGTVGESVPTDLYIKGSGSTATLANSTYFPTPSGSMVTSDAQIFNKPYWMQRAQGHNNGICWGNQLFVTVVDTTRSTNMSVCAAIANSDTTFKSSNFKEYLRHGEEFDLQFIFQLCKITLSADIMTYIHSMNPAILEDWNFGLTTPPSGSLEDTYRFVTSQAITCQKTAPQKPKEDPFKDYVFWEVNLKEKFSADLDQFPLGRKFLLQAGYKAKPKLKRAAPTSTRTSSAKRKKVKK
# T3: HPV33 VLP protein (human papillomavirus type 33, UniProt P06416 1-499)
# T3 construct: Complete VLP protein; no limits of the construct printed, whole entry named; also called HPV33L1
# T3 sequence: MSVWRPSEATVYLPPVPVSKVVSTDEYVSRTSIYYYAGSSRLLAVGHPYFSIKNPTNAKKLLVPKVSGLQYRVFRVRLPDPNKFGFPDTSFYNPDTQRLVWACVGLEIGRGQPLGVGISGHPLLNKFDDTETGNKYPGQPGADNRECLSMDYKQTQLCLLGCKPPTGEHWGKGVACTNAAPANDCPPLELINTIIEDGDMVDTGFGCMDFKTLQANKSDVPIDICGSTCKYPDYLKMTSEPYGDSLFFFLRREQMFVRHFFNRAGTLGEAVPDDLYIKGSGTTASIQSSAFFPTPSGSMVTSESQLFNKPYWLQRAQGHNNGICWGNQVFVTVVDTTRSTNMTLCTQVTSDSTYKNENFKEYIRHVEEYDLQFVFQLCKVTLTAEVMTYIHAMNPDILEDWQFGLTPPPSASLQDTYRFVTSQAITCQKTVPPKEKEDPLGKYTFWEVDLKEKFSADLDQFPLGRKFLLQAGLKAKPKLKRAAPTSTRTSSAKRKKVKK
# T4: HPV16 VLP protein (human papillomavirus type 16, UniProt P03101 1-474)
# T4 construct: Complete VLP protein; no limits of the construct printed, whole entry named; also called HPV-16L1
# T4 sequence: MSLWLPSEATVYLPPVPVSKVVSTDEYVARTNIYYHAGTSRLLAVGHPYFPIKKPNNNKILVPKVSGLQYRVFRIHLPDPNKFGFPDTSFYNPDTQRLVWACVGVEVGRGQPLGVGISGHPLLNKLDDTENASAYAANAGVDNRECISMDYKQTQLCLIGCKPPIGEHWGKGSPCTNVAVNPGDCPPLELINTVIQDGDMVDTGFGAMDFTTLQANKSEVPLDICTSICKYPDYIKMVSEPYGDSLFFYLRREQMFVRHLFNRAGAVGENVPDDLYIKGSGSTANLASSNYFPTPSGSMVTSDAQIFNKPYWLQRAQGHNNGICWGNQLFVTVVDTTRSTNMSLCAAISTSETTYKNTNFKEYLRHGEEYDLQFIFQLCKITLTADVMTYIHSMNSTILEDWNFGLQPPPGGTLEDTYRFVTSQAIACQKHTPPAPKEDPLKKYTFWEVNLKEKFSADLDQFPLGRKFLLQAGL
# T5: HPV35 VLP protein (human papillomavirus type 35; human …, UniProt P27232 1-472; P06416 474-499)
# T5 construct: range 1-472;range 474-499; Complete VLP protein used as coating protein; also called HPV35L1(1-472L)+HPV33L1(474K-499K)
# T5 sequence: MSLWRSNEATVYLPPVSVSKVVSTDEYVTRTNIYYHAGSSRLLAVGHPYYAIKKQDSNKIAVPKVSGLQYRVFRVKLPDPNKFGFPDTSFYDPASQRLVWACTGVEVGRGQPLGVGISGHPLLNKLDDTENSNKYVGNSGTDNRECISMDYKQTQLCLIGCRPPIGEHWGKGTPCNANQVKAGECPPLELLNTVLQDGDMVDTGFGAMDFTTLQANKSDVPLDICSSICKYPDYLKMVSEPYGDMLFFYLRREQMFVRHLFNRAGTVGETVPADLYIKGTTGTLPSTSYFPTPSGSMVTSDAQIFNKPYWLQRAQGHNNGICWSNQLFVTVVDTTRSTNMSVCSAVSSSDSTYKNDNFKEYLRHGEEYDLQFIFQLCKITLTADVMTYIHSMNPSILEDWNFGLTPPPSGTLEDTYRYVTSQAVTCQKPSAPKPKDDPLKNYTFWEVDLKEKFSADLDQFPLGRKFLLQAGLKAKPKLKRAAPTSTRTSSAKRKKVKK
# What was measured:
# Assay in all cases: double-antibody sandwich ELISA on the mixture of 13 HPV VLPs
# HPV51 VLP protein = molecular target: T1, HPV51 VLP protein
# HPV31 VLP protein = molecular target: T2, HPV31 VLP protein
# HPV33 VLP protein = molecular target: T3, HPV33 VLP protein
# HPV16 VLP protein = molecular target: T4, HPV16 VLP protein
# HPV35 VLP protein = molecular target: T5, HPV35 VLP protein
binder,measurement,setting,value
"monoclonal antibody HPV6-R003 (antibody, V domains shown, here built from variable plus constant region so that the signal peptides are left out; In the sandwich ELISA the same antibody is used as coating antibody and, labelled with horseradish peroxidase, as detection antibody; also called anti-HPV6 L1 protein antibody) VH: QQQLEESGGGLVKPGGTLTLTCKASGIDLSNYYMCWVRQAPGKGLEWIGCIYTGSGRTYYASWAKGRFTISKASSTTVTLQMTSLTAADTATYFCARDYLGWRASNIWGPGTLVTVSS VL: ELVMTQTPSSVSAAVGGTVTINCQASQSVYSNNLVWYQQKPGQPPKLLIYGASTLASGVPSRFKGSGSGTQFTLTISDVVCDDAATYYCGGYVSDSTDGTAFGGGTEVVVKG",binding result,HPV51 VLP protein,"no binding (tested: mixture 50 ng/mL, each subtype 1/13)"
same,binding result,HPV31 VLP protein,"no binding (tested: mixture 50 ng/mL, each subtype 1/13)"
same,binding result,HPV33 VLP protein,"no binding (tested: mixture 50 ng/mL, each subtype 1/13)"
same,binding result,HPV16 VLP protein,"no binding (tested: mixture 50 ng/mL, each subtype 1/13)"
same,binding result,HPV35 VLP protein,"no binding (tested: mixture 50 ng/mL, each subtype 1/13)"
